Experimental data taken from US20120190616A1 (IPSEN PHARMA S A S, published 2012).
Numbering of substitutions follows the chain as printed.

B1: (Asn^59, Thr^63, des-Leu^64, des-Lys^65, Glu^70)hIGF-1(1-70)-OH (ligand)
chain: GPETLCGAELVDALQFVCGDRGFYFNKPTGYGSSSRRAPQTGIVDECCFRSCDLRRLENYCATPAKSE
notes: synthetic; Leu64 and Lys65 deleted; free acid C-terminus; disulfides 6-48, 47-52, 18-61
B2: (Pro^27, Lys^28, Asn^59)hIGF-1(1-62)-OH (ligand)
chain: GPETLCGAELVDALQFVCGDRGFYFNPKTGYGSSSRRAPQTGIVDECCFRSCDLRRLENYCA
notes: synthetic; free acid C-terminus
B3: (Arg^27,65,68, Leu^59)hIGF-1(1-70)-OH (ligand)
chain: GPETLCGAELVDALQFVCGDRGFYFNRPTGYGSSSRRAPQTGIVDECCFRSCDLRRLELYCAPLRPARSA
notes: synthetic; free acid C-terminus; disulfides 6-48, 47-52, 18-61
B4: (Pro^27, Lys^28, Asn^59)hIGF-1(1-70)-OH (ligand)
chain: B3 chain with R27P, P28K, L59N, R65K, R68K
notes: as for B3
B5: (Leu^59, Arg^65,68)hIGF-1(1-70)-OH (ligand)
chain: B3 chain with R27K
notes: as for B3

Target: T1, native IGF-1 receptor of human MCF-7 cells (human, UniProt P08069 31-1367)
T1 construct: whole, on cells; assayed in membranes prepared from MCF-7 cells
Experiment: radioligand competition, [125I]IGF-1 on MCF-7 cell membranes
Experimental: The homogenates were washed twice by centrifugation (39,000 g/10 minutes) and the final pellets were resuspended in 50 mM Tris-HCl containing 2.5 mM MgCl₂ and 0.1% BSA.
Unlabeled competing test peptides were sometimes included. The final assay volume was 0.25 ml. […] The supernatant was decanted and the radioactive particles trapped in the pellet was counted by gamma spectrometry (Wallac LKB, Gaithersburg, Md., USA).

Row | Binder | IC50
1 | B1 | 19 nM
2 | B2 | 1.14 nM
3 | B3 | 2.69 nM
4 | B4 | 0.88 nM
5 | B5 | 2.89 nM
